Assay results from patent US9951335B2, “Compositions and methods for treating otitis media and other conditions with inhibitors of CYLD” (Georgia State University Research Foundation, Inc., priority 2012, dated 2018).

Columns and labels:
CYLD = CYLD knockdown efficiency of siCYLD (immunoblotting); assay type: cell-based, human; conditions: a number of cell types including NHBE cells
Experimental: RNA-mediated interference for downregulating CYLD expression was carried out using pSuper-CYLD and the sequence for the siCYLD is 5′-[…]-3′ (SEQ ID NO:13). Human and mouse siRNAs for Akt and CHIP were from Dharmacon, and knockdown of Akts and CHIP, using siAkt and siCHIP, was performed with Lipofectamine 2000 (Invitrogen). ON-TARGETplus SMARTpool of siRNAs targeting human Akt1, human CHIP, mouse Akt1, and mouse Akt2 consists of four siRNAs and sequences for the siRNAs are as follows: Human siAkt1 (5′-[…]-3′ (SEQ ID NO:14), 5′-[…]-3′ (SEQ ID NO:15), 5′[…]-3′ (SEQ ID NO:16), 5′-[…]-3′ (SEQ ID NO:17)); human CHIP (5′-[…]-3′ (SEQ ID NO:18), 5′-[…]-3′ (SEQ ID NO:19), 5′-[…]-3′ (SEQ ID NO:20), 5′-[…]-3′ (SEQ ID NO:21)); mouse Akt1 (5′-[…]-3′ (SEQ ID NO:22), 5′-[…]-3′ (SEQ ID NO:23), 5′-[…]-3′ (SEQ ID NO:24), 5′-[…]-3′ (SEQ ID NO:25)); mouse Akt2 (5′-[…]-3′ (SEQ ID NO:26), 5′-[…]-3′ (SEQ ID NO:27), 5′-[…]-3′ (SEQ ID NO:28), 5′-[…]-3′ (SEQ ID NO:29)).
Western blot, immunoprecipitation and ubiquitination experiments were performed as follows. Western blots were performed using whole-cell extracts, separated on 8 or 10% SDS-PAGE gels, and transferred to polyvinylidine di& uoride membranes. […] Immunoprecipitates were then suspended in a sample buffer, separated on 8% SDS-PAGE, transferred to polyvinylidine difluoride membrane, and detected by immunoblot analysis, as described above. […]

TGF-β-signalling = assay: SBE-Luc activity in TβR-deficient DR26 and R1B cells; assay type: cell-based, mink
Excerpt: Having identified CYLD as a negative regulator of TGF-β-signalling and lung fibrosis, we next sought to determine how CYLD inhibits TGF-β-signalling. TGF-β-ligands bind to a type II receptor (TβRII), which recruits and phosphorylates a type I receptor (TβRI). The activated TβRI then phosphorylates the Smad subgroup known as receptor-activated Smads (R-Smad), for example, Smad3, which can bind to Co-Smad Smad4. The R-Smad and Co-Smad complex then undergoes nuclear translocation for target gene regulation. To first determine at which level CYLD inhibits TGF-β-signalling, we took advantage of the available lung epithelial cell lines, DR26 and R1B that are derived from the WT Mv1Lu cells and lack functional […] TβRI, respectively. […] We next determined whether CYLD exerts its inhibitory effect on TGF-β-signalling at the level or downstream of TβRI by assessing the effects of siCYLD on WT-Smad3-induced SBE-Luc activity in TβRI-deficient R1B cells. […] To further determine whether CYLD inhibits TGF-β-signalling by likely targeting Smad3, we next evaluated the effect of CYLD knockdown in Smad3-deficient MEF cells.
A549, HeLa and HEK293 cells were maintained in the F12-K, minimal essential medium Eagle's with Earle's balanced salt solution (EMEM), and DMEM […]. […]

B1: siCYLD: RNA-mediated interference for downregulating CYLD expression using pSuper-CYLD, SEQ ID NO:13 (nucleic acid)
chain: GATCCCCGAGCTACTGAGGACAGAAATTCAAGAGATTTCTGTCCTCAGTAGCTCTTTTTGGAAA
modifications: expressed from pSuper vector
CYLD
  endogenous CYLD protein expression: efficiently reduced
TGF-β-signalling; TβRI-deficient R1B cells
  WT-Smad3-induced SBE-Luc activation: markedly enhanced
TGF-β-signalling; TβRII-deficient DR26 cells
  constitutively active (C/A)-TβRI-induced SBE-Luc activity: markedly enhanced
